The values below come from patent publication US20170218073A1 (HENLIX BIOTECH, published 2017).

For experiment [1], the target named is T1, epidermal growth factor receptor (EGFR) (UniProt P00533 25-645, limits assumed). The experiment in a line: SPR.
Experiment [2] addresses T1, epidermal growth factor receptor (EGFR). The experiment is described as follows: SPR; against HLX05.
Experiment [3] concerns the target T2, EGFR antigen produced in-house (UniProt P00533 25-645, limits assumed).
T2 construct: May be the same preparation as m1
The experiment in a line: off-rate ELISA in wells coated with EGFR antigen produced in-house, A405. The text has this: The 1-26 heavy chain was selected and used as the basis for generating CDR-H2 libraries for deletion of a glycosylation site. CDR-H2 nucleic acid libraries were generated via PCR, cloned into a phage display vector, and transformed into E. coli to produce a library of phages.

In a further experiment the target is T3, EGFR-AP fusion protein (UniProt P00533 25-645).
T3 construct: treated as one molecule; also called Alkaline phosphatase-conjugated EGFR; not shown: alkaline phosphatase (AP) part
The experiment is described as follows: competitive ELISA: antibody pre-mixed with biotinylated HLX05, EGFR-AP added, capture on avidin wells, pNPP, A405; competitor: biotinylated HLX05. How it is done: Alkaline phosphatase-conjugated EGFR was then added to the pre-mixed solution and pre-incubated for 1 hour at room temperature. The preincubation mix was then added to mictotiter wells coated with avidin. Following a one-hour incubation, all wells were washed with PBST, and pNPP was added to each well. Following a second incubation at 37° C., the reaction was stopped.
(In general: ELISA stands for enzyme-linked immunosorbent assay.)

For experiment [4], the target named is T1, epidermal growth factor receptor (EGFR). The experiment is described as follows: kinetics, method not named for Table 6 (presumably SPR).
Experiment [5] shares this target. The experiment is described as follows: kinetics of Table 6 (method not named, presumably SPR); lower end tied to 1-26/3-67 by Table 6 (2.2).
For experiment [6] the target is unchanged. The experiment in a line: kinetics, method not named for Table 6 (presumably SPR); against HLX05.

B1: 1-26/3-67 (LC/HC) (antibody, V domains shown)
VH: EVQLVESGGGLVQPGGSLRLSCAASGFSLTNYGVHWVRQAPGKGLEWLGVIWSGGNTDYGNEFTSRFTISRDNAKNSLYLQMNSLRAEDTAVYYCARALDYYDYEFAYWGQGTMVTVSS
VL: EIVLTQSPATLSLSPGERATLSCRASQSIGTNIHWYQQKPGQAPRLLIKYASESISGIPARFSGSGSGTDFTLTISSLEPEDFAVYYCQQNNNWPTSFGGGTKVEIK
notes: also called HLX07; HLX07 1-26/3-67
The Kd is the equilibrium constant for the complex coming apart. Low readings indicate tighter binding, high ones weaker binding. Broadly, the koff is the first-order rate constant of dissociation. The kon is the second-order rate constant of association. Broadly, the EC50 (read off the curve) is the midpoint of the concentration-response curve. A low value points to greater potency. In experiment [1], B1 gave a dissociation constant Kd of 0.109 nM, a koff of 0.000553 s⁻¹ and a kon of 5.09e+06 M⁻¹ s⁻¹. In addition, the “Fold difference in KD” value in experiment [2] was 1.2 fold. Moreover, in experiment [3], the “EC50 (read off the curve)” value is ~0.3 µg/mL. In the experiment with EGFR-AP fusion protein, the “IC50 (read off the curve)” value was ~4 µg/mL. In experiment [4], this molecule gave a Kd of 0.111 nM, a koff of 0.000995 s⁻¹ and a kon of 8.93e+06 M⁻¹ s⁻¹. In addition, in experiment [5], the “fold higher affinity than HLX05” value is 2 to 3 fold. Moreover, the “Fold difference in KD” value in experiment [6] was 2.2 fold.
